The record followed here is US20220064286A1 (Genentech, published 2022).

Numbering of substitutions follows the chain as printed. Names may count otherwise. Some results are limits rather than exact numbers.

For assay [1], the target named is T1, human TIGIT protein (human, UniProt Q495A1 22-141, limits assumed).
T1 construct: Recombinant protein (Genentech) used in ELISA screening and as SPR analyte; also called TIGIT antigen
T1 sequence: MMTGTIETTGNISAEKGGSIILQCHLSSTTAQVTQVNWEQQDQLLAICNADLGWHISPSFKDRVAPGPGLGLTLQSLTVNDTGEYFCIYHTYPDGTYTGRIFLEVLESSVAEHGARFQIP
As to the kind of experiment: SPR, against h7E7.L1H1 (implied). The method, then: (§1) Briefly, a series S CM5 biosensor chip was activated with N-ethyl-N′-(3-dimethylaminopropyl)-carbodiimide hydrochloride (EDC) and N-hydroxysuccinimide (NHS) reagents according to the supplier's (GE Healthcare Biosciences, Piscataway, N.J.) instructions, and a human antibody capture kit was applied to couple goat anti-human Fc IgGs in order to achieve approximately 10,000 response units (RU) on each flow cell, followed by blocking un-reacted groups with 1M ethanolamine.
(§2) (flow rate: 30 μl/min) with no regeneration between injections. The sensorgrams were recorded and evaluated by BIAcore™ T200 Evaluation Software (version 2.0) after subtraction of reference cell signal. Association rates (kₒₙ) and dissociation rates (koff) were calculated using a simple one-to-one Langmuir binding model. The equilibrium dissociation constant (KD) was calculated as the ratio koff/kₒₙ.
(§3) The first humanized versions, h6B2, L1H1, h10A5.L1H1, h7E7, L1H1, and h15C8.L1H1, which contain both rat CDRs and framework residues at Vernier positions, and the fully humanized versions, h6B2.L2H5, h10A5.L4H4, h7E7.L5H9, and h15C8.L5H9, which contain only rat CDRs were subject to BIAcore affinity measurement by comparison with original rat antibodies, rat6B2, rat10A5, rat7E7 and rat 15C8. For binding affinity determinations of TIGIT antibodies against human TIGIT, cynomolgus monkey TIGIT and human alanine-scanned TIGIT mutants by single-cycle kinetics, Surface Plasmon Resonance (SRP) measurement with a BIACORE™-T200 instrument was used, as described above.

The target in assay [2] is T2, cynomolgus monkey (cyno) TIGIT protein (cynomolgus monkey, UniProt A0A7N9I9V4 89-209). In words: SPR, against h7E7.L1H1 (implied). The method, then:
as §1, §2, §3
On the technique in general: In SPR one partner is held on a chip, and binding of the other changes the refractive index at the surface.

The target of assay [3] is T1, human TIGIT protein. As to the kind of experiment: SPR, captured mAb.
For assay [4], the target named is T2, cynomolgus monkey (cyno) TIGIT protein. As to the kind of experiment: SPR, captured mAb.
Assay [5] has as its target T1, human TIGIT protein. In words: SPR, against h15C8.L1H1 (implied). The method, then:
as §1, §2, §3

In assay [6] the target is T2, cynomolgus monkey (cyno) TIGIT protein. As to the kind of experiment: SPR, against h15C8.L1H1 (implied). The method, then:
as §1, §2, §3

Assay [7] has as its target T3, full-length human TIGIT on CHO cells (human, UniProt Q495A1 22-244).
T3 construct: also called CHO-hTIGIT; hu TIGIT
T3 sequence: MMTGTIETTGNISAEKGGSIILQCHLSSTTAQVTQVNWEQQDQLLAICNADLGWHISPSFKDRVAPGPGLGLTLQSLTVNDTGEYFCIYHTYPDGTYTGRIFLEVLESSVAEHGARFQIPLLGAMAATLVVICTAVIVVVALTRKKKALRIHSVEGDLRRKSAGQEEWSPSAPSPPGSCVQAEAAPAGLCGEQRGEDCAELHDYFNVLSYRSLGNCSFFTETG
In words: FACS on CHO cells expressing human TIGIT, FITC anti-hIgG detection. The method, then:
(§4) Additional in vitro binding studies of the OMT- and SD-derived anti-TIGIT antibody clones were conducted. The OMT- and SD-derived anti-TIGIT clones were tested for binding to human and cyno TIGIT expressed on the surface of CHO cells by FACS analysis. CHO cells were transfected with full-length human TIGIT (CHO-hTIGIT) or cynomologous TIGIT (CHO-cyTIGIT). The TIGIT-expressing CHO cells were incubated with each anti-TIGIT antibody at the indicated concentrations and then detected via a FITC-labeled anti-hIgG antibody (see FIG. 1A) using standard methods. The results, shown in Table 6 and FIGS. 1B-1E, corroborate the results from the BIACORE™ analysis, described above.

In assay [8] the target is T4, human TIGIT on activated human primary T cells (human, UniProt Q495A1 22-244).
T4 construct: also called Human T cell
T4 sequence: T3 sequence
In words: FACS on activated human PBMC, CD4 T cells, FITC anti-hIgG detection. The method, then: The OMT- and SD-derived anti-TIGIT clones were also tested for binding to human primary T cells by FACS analysis. Human PBMC were activated for with plate-bound anti-CD3 (5 μg/ml) and soluble anti-CD28 (2 μg/ml) for 2 days as described in Yu et al. Nature Immunology. 10: 48-57, 2009, which is incorporated herein by reference in its entirety. Cells were then washed and incubated with incubated with each anti-TIGIT antibody at the indicated concentrations and then detected via a FITC-labeled anti-hIgG antibody. Cells were also stained with anti-CD4, anti-CD8, and anti-CD25 (BD bioscience). Human CD4+(CD25+CD4+) and human CD8+(CD25+CD8+) T cells were assessed for binding by the anti-TIGIT clones by FACS. All samples were acquired on LSR-II or LSR-Fortessa instruments (BD Biosciences) and analyzed using FlowJo software (Treestar).

Assay [9] addresses T5, cynomolgus TIGIT on CHO cells (cynomolgus monkey, UniProt A0A7N9I9V4 89-312).
T5 construct: whole, on cells; also called CHO-cyTIGIT; cyTIGIT
As to the kind of experiment: FACS on CHO cells expressing cyno TIGIT, FITC anti-hIgG detection. The method, then: as §4

Assay [10] addresses T1, human TIGIT protein. As to the kind of experiment: SPR, bivalent affinity.
Assay [11] deals with T2, cynomolgus monkey (cyno) TIGIT protein. In words: SPR, bivalent affinity.
Assay [12] concerns the target T5, cynomolgus TIGIT on CHO cells. In words: FACS blocking assay: labelled PVR-Fc (blocked ligand) on CHO cells expressing cyno TIGIT. The method, then: (§5) These studies were further validated in CHO-TIGIT PVR blocking experiments in which TIGIT-expressing CHO cells were incubated with labeled PVR-Fc fusion protein in the presence of anti-TIGIT antibody or an human IgG1 control (FIG. 4A).

Assay [13] deals with T1, human TIGIT protein. In words: SPR, monovalent affinity.
In assay [14] the target is T2, cynomolgus monkey (cyno) TIGIT protein. In words: SPR, monovalent affinity.
In assay [15] the target is T3, full-length human TIGIT on CHO cells. As to the kind of experiment: FACS blocking assay: labelled PVR-Fc (blocked ligand) on CHO cells expressing human TIGIT. The method, then:
as §5

T2 sequence (A0A7N9I9V4 entry or part of it): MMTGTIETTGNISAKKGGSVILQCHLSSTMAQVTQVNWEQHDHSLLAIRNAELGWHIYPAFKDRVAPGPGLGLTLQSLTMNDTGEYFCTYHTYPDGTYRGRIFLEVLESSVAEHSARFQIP
T5 sequence (A0A7N9I9V4 entry or part of it): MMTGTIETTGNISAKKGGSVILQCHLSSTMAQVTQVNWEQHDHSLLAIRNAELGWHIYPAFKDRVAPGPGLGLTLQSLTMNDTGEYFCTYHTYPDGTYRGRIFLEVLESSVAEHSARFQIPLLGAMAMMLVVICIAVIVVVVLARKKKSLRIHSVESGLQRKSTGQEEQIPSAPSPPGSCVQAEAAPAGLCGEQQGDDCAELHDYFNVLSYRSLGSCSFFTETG

B1: h7E7.L1H2 (antibody, V domains shown)
VH: EVQLVQSGAEVKKPGASVKVSCKASGYTFTEYSIYWVRQAPGQRLEWIGRIDPKNGRTYYVDKFKNRATLTADTSASTAYMELSSLRSEDTAVYFCTRIYGFYFDFWGQGTLVTVSS
VL: DIQLTQSPSFLSASVGDRVTITCKGSQNVNKYLVWYQQKPGKAPKLLIYNTDNLQSGIPSRFSGSGSGTEYTLTISSLQPEDFATYFCYQYNNGFTFGQGTKVEIK
notes: VH: I47W against h7E7.L1H1; FR/HVR pieces
For B1, the “fold drop in binding affinity” value (with human TIGIT protein [1]; in assay [2]) was over 100 fold throughout.

B2: h7E7.L5H9 (antibody, V domains shown)
VH: B1 VH with I48M, A68V, L70I, A72R, F95Y, T97A
VL: B1 VL with I58V, Y71F, F87Y
notes: Fully humanized version; FR/HVR pieces
Turning to B2, the Kd (with human TIGIT protein [3]; in assay [4]) was over 100 nM throughout. Besides, the “fold drop in binding affinity” value (with human TIGIT protein [1]; in assay [2]) was over 100 fold throughout.

B3: h15C8.L1H3 (antibody, V domains shown)
VH: B1 VH with Y32H, V37L, Y60F, A72T, T97A, Y100D
VL: B1 VL with N50S
notes: VH: I47W against h15C8.L1H1; FR/HVR pieces
Take B3: the “fold drop in binding affinity” value (in the assay with human TIGIT protein [5]; in [6]) was over 100 fold throughout.

B4: h7E7.L1H9 (antibody, V domains shown)
VH: B1 VH with I48M, A68V, L70I, A72R, F95Y, T97A
VL: B1 VL
notes: VH: all seven Vernier residues back to human; FR/HVR pieces
In the case of B4, the “fold drop in binding affinity” value (in the assay with human TIGIT protein [1]; in assay [2]) was over 100 fold in each case.

B5: h15C8.L1H9 (antibody, V domains shown)
VH: B1 VH with Y32H, I48M, Y60F, A68V, L70I, A72R, F95Y, T97A, Y100D
VL: B1 VL with N50S
notes: as for B4
For B5, the “fold drop in binding affinity” value (in the assay with human TIGIT protein [5]; in assay [6]) was over 100 fold throughout.

B6: h15C8.L5H9 (antibody, V domains shown)
VH: B1 VH with Y32H, I48M, Y60F, A68V, L70I, A72R, F95Y, T97A, Y100D
VL: B1 VL with N50S, I58V, Y71F, F87Y
notes: as for B2
With B6, the “fold drop in binding affinity” value (with human TIGIT protein [5]; in assay [6]) was over 100 fold each time. For the same molecule, the Kd (in the assay with human TIGIT protein [3]; in [4]) was over 100 nM each time.

B7: rat10A5 (antibody, V domains shown)
VH: QVSLKESGPGILQPSHTLSLTCSFSGFSLTTYGMGVSWIRQPSEKGLEWLASIWWNGNTYYNPSLRSRLTVSKDTSNDQAFLNVTSVDTTDTATYYCAHTGGAVITWFAYWGQGTLVTVSS
VL: NIVMTQSPKSMSISIGDRVTMNCKASQSVGKNIAWYQQKTGQSPQLLIYYASNRYTGVPDRFTGGGSGTDFTLTINSVQAEDAAFFYCQHIYNSPYPFGTGTKLEIK
notes: SD rat-derived; rat V domains as FR/HVR pieces; also called 1.10A5; Chimeric 1.10A5
As usually defined, the EC50 (read off the curve) is the concentration giving half of the maximal effect. In general, koff refers to the first-order rate constant of dissociation. One may read the kon as the second-order rate constant of association. Regarding B7, the concentration for a half-maximal effect (EC50 (read off the curve)) in assay [7] was about 0.2 nM; in assay [8], about 0.09 nM; in [9] it was about 0.2 nM. For the same molecule, the Kd with human TIGIT protein [10] was at most 0.003 nM; in assay [11], 0.013 nM; with human TIGIT protein [3], 0.09 nM; in assay [4], 0.41 nM; in the assay with human TIGIT protein [13], 0.093 nM; in [14], 0.41 nM. The “IC50 (read off the curve)” value in assay [12] is about 0.09 nM. In addition, the koff with human TIGIT protein [3] came to 8.4e-05 s⁻¹; in [4], 0.000281 s⁻¹. The kon with human TIGIT protein [3] was 905000 M⁻¹ s⁻¹; in assay [4], 678000 M⁻¹ s⁻¹.

B8: rat15C8 (antibody, V domains shown)
VH: EVQLQQSGPELQRPGASVKLSCKASGYTFTEHSIYWLKQRPKQSLEIIGRIDPKNGRTYFVDKFKNRATLTTNTSSNTAYMQLSSLTSEDTAIYFCARIDGFYFDFWGQGVMVTASS
VL: NIHLTQSPSLLSASVGDRVTLSCKGSQNVNKYLVWYQQKLGEAPKLLIYSTDNLQSGIPSRFSGSGSGTDYTLTISSLQPEDAATYFCYQYNNGFTFGSGTKLEIK
notes: SD rat-derived; rat V domains as FR/HVR pieces; also called 1.15C8; Chimeric 1.15C8
B8: the entries for the “EC50 (read off the curve)” value in assay [7] and in assay [9] were about 0.3 nM and about 0.4 nM, respectively. Further, the Kd with human TIGIT protein [10] is at most 0.007 nM; in [11] it was at most 0.013 nM; with human TIGIT protein [3], 0.03 nM; in assay [4] it was 0.25 nM; in the assay with human TIGIT protein [13], 0.034 nM; in [14], 0.25 nM. In addition, the results for the “IC50 (read off the curve)” value in assay [12] and in [15] were about 0.3 nM and about 0.4 nM, respectively. For the same molecule, the figures for the koff (in the assay with human TIGIT protein [3]; in assay [4]) were 1.8e-05 s⁻¹ and 9.6e-05 s⁻¹, respectively. Further, the values for the kon (with human TIGIT protein [3]; in [4]) were 522000 M⁻¹ s⁻¹ and 381000 M⁻¹ s⁻¹, respectively.
